Data: paper PMC5101480 (Scientific Reports, 2016)

B1: TPR domain of SGTA (small, glutamine-rich, tetratricopeptide repeat protein alpha), residues 84-211 (domain or fragment, human, UniProt O43765 84-211, looked up)
chain: SEEDSAEAERLKTEGNEQMKVENFEAAVHFYGKAIELNPANAVYFCNRAAAYSKLGNYAGAVQDCERAICIDPAYSKAYGRMGLALSSLNKHVEAVAYYKKALELDPDNETYKSNLKIAELKLREAPS
notes: human SGTA, central TPR domain, residues 84-211; 15N-labelled (M9 medium) where it was the observed species in NMR; unlabelled otherwise; not shown: thioredoxin A (TxA), N-terminal, cleaved; His6, N-terminal, cleaved
B2: Rpn13 extreme C-terminal pentapeptide (DMSLD; residues 403-407) (peptide)
peptide: DMSLD
notes: also called DMSLD peptide; DMSLD pentapeptide; source: synthetic peptide, bought: Alta BioScience (Birmingham, UK)

Columns and labels:
[1] = target: SGTA-V5 (UniProt O43765)
Sequence of SGTA-V5 (O43765 whole entry, the tested form may be a part): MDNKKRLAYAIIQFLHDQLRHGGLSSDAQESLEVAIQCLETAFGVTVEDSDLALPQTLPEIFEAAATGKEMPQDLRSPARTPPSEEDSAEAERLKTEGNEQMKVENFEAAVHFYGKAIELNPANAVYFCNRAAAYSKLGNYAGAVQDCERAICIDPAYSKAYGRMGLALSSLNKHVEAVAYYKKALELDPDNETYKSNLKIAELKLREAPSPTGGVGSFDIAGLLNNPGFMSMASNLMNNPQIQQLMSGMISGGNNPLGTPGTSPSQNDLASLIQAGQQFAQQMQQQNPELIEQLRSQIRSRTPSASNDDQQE

[2] = target: T1, Rpn13 C-terminal domain, residues 260-407 (human, UniProt Q16186 260-407); assay: ITC; SGTA_TPR at 1 mM injected into Rpn13 or DMSLD peptide at 50 μM in the cell; 25 °C, 10 mM potassium phosphate pH 6.0, 100 mM NaCl, 250 μM TCEP; one site assumed (n = 1); conditions: both partners purified
T1 construct: 15N-labelled where it was the observed species in NMR; unlabelled otherwise; not shown: thioredoxin A (TxA), N-terminal, cleaved; His6, N-terminal, cleaved

[3] = target: B2; assay: as above; conditions: both partners purified
[4] = target: T2, spin labelled K398C Rpn13_(260-407) mutant (human, UniProt Q16186 260-407, K398C, paramagnetic MTSL or diamagnetic dMTSL label incorporated via the K398C cysteine); assay: NMR paramagnetic relaxation enhancement; 15N-labelled SGTA_TPR mixed with MTSL or dMTSL labelled K398C Rpn13_(260-407) at a 1:1.2 ratio, 200 μM; 10 mM potassium phosphate pH 6.0, 100 mM NaCl; 1H-15N HSQC; conditions: both partners purified
T2 construct: The paramagnetic and the diamagnetic sample are written as one molecule: the PRE read-out is the ratio of the two; source: E. coli BL21(DE3) Rosetta, purified, then labelled with MTSL or dMTSL; not shown: thioredoxin A (TxA), N-terminal, cleaved; His6, N-terminal, cleaved

[5] = target: T1, Rpn13 C-terminal domain, residues …; assay: NMR titration; 1H-15N HSQC chemical shift perturbation; unlabelled SGTA_TPR (wild type or K160E/R164E) titrated into 15N-labelled Rpn13_(260-407); 25 °C, 10 mM potassium phosphate pH 6.0, 100 mM NaCl, 250 μM TCEP; conditions: both partners purified
[6] = target: B1; assay: ITC; SGTA_TPR at 1 mM injected into Rpn13 or DMSLD peptide at 50 μM in the cell; 25 °C, 10 mM potassium phosphate pH 6.0, 100 mM NaCl, 250 μM TCEP; one site assumed (n = 1); conditions: both partners purified
[7] = target: T3, TPR domain of SGTA (SGTA_TPR) (Homo sapiens, UniProt O43765); assay: Isothermal titration calorimetry (ITC), SGTA_TPR titrated into Rpn13 or DMSLD peptide; type: binding; conditions: 20 injections of 2 μL of 1 mM SGTA_TPR into 50 μM Rpn13_260-402, pH 6.0, 25 °C
T3 construct: thioredoxin A (TxA) fusion (N, cleaved yes); hexahistidine tag (N, cleaved yes); made in house; host or cells: E. coli BL21(DE3) Rosetta
Protocol: ITC experiments were performed using an ITC-200 microcalorimeter from Microcal (GE Healthcare) at 25 °C following the standard protocol as reported previously. Proteins or peptide samples were prepared in 10 mM potassium phosphate pH 6.0, 100 mM NaCl, 250 μM TCEP. In each titration, either 40 injections of 1 μL or 20 injections of 2 μL of SGTA_TPR each, at a concentration of 1 mM, were added to a sample of Rpn13 or the Rpn13 derived DMSLD peptide at a concentration of 50 μM in the reaction cell. A nonlinear least-squares minimization algorithm was applied to integrated heat data obtained for the titrations, corrected for heats of dilution, in order to fit the experimentally obtained values to a theoretical titration curve. This was performed using the MicroCal-Origin 7.0 software package. ΔH (reaction enthalpy change in kcal/mol), Kb (equilibrium binding constant in per molar), and n (molar ratio between the proteins in the complex) were used as fitting parameters. The reaction entropy, ΔS, was calculated using the relationships ΔG = −RT lnKb (R = 8.314 J/(mol K), T 298 K) where ΔG = ΔH − TΔS. Dissociation constants (Kd) have been determined for each interaction. Binding was assumed to be at one site (n = 1), to determine the binding affinity (Kd) and thermodynamic parameters.

[8] = target: T3, TPR domain of SGTA (SGTA_TPR); assay: Size exclusion chromatography (SEC) complex formation with SGTA_TPR; type: binding; conditions: mixed in 1:1 molar ratio
Protocol: In order to understand molecular details underlying the interaction between SGTA and Rpn13, solution NMR studies were carried out on excised domains of SGTA and Rpn13 guided by earlier mapping studies. Reciprocal chemical shift perturbation (CSP) experiments were performed by titrating unlabelled Rpn13 C-terminal domain (residues 260–407; hereafter described as Rpn13_260-407) into ^15N-labelled TPR domain of SGTA (residues 84–211; hereafter referred to as SGTA_TPR) and vice versa. Assignments of backbone amide resonances were obtained from the BMRB (accession numbers 5709 and 17286, for SGTA_TPR and Rpn13_260-407, respectively). The ^1H-^15N HSQC spectra of both SGTA_TPR and Rpn13_260-407 show binding in a fast exchange regimen (Figs 1A and 2A). […] Binding was further confirmed by size-exclusion chromatography (SEC) and isothermal titration calorimetry (ITC) (Fig. 1C,D). […]
SGTA_TPR and Rpn13 plasmids were transformed into E. coli BL21(DE3) Rosetta cells, with protein expression induced by adding 0.3–0.5 mM isopropyl-β-D-thiogalactopyranoside (IPTG) to bacterial cultures in LB media at OD600 ≈ 0.8, followed by overnight incubation at 18 °C. […] Proteins were concentrated using Vivaspin concentrators (Sartorius Stedin) and sample purity and homogeneity was assessed by SDS-PAGE, mass spectrometry and NMR. […]

[9] = target: T3, TPR domain of SGTA (SGTA_TPR); assay: Solution NMR CSP titration of unlabelled ligand into 15N-labelled SGTA_TPR; type: binding; conditions: unlabelled ligand into 15N-labelled SGTA_TPR; pH 6.0, 25 °C; Rpn13_260-407 up to 8 equivalents, Rpn13_260-402 up to 6-fold molar excess
Protocol: In order to understand molecular details underlying the interaction between SGTA and Rpn13, solution NMR studies were carried out on excised domains of SGTA and Rpn13 guided by earlier mapping studies. Reciprocal chemical shift perturbation (CSP) experiments were performed by titrating unlabelled Rpn13 C-terminal domain (residues 260–407; hereafter described as Rpn13_260-407) into ^15N-labelled TPR domain of SGTA (residues 84–211; hereafter referred to as SGTA_TPR) and vice versa. Assignments of backbone amide resonances were obtained from the BMRB (accession numbers 5709 and 17286, for SGTA_TPR and Rpn13_260-407, respectively). The ^1H-^15N HSQC spectra of both SGTA_TPR and Rpn13_260-407 show binding in a fast exchange regimen (Figs 1A and 2A). […] Binding was further confirmed by size-exclusion chromatography (SEC) and isothermal titration calorimetry (ITC) (Fig. 1C,D). […] ITC experiments yield a dissociation constant of 16.1 ± 1.4 μM in keeping with the value obtained from NMR.
Protein samples at concentrations between 300 μM and 1 mM were prepared in 10% D2O (Sigma Aldrich), 10 mM potassium phosphate pH 6.0, 100 mM NaCl and 250 μM TCEP buffer (with 10 μM DSS for proton chemical shift referencing). All NMR experiments were acquired in 5 mm NMR tubes at 25 °C on 500 MHz and 700 MHz Bruker Avance spectrometers equipped with cryoprobes and operated by the TopSpin 3.1 software package. All NMR spectra were processed with TopSpin and analysed with CcpNMR Analysis[35]. Proteins used for NMR titrations were dialysed overnight against the same buffer (10 mM potassium phosphate pH 6.0, 100 mM NaCl and 250 μM TCEP) and mixed in different molar ratios, with the concentration of the labelled protein maintained constant. ^1H-^15N HSQC experiments were recorded for each titration point at 25 °C. Chemical shift perturbation (CSP) values were calculated for each amide signal using the following formula: […]
where Δδ1H and Δδ15N are the chemical shift differences for the same amide in its free and bound state (δfree−δbound) and for proton and nitrogen chemical shift values respectively. […]

With “FLAG tagged mouse Rpn13 (150-402) (from UniProt Q9JKV1 150-402) (domain or fragment)” as the molecule, how does the fold increase of steady state OP91 level (quantitative western blot) in HeLa TRex Flp-In cells co-expressing SGTA-V5 and Rpn13 (150-402), against the Rpn13 (150-407) control [1] read?
Its fold increase of steady state OP91 level (quantitative western blot) in HeLa TRex Flp-In cells co-expressing SGTA-V5 and Rpn13 (150-402), against the Rpn13 (150-407) control is 3 fold.

For B1, which Kd [2] is on record?
The Kd was 16.1 ± 1.4 µM.

And the dH [2]?
Its dH is -3.37 ± 0.08 kcal/mol.

And the dH [3]?
Its dH is -4.97 ± 0.41 kcal/mol.

Does B1 bind [4]?
Result: binds

And the Kd [5]?
The Kd was 3.27 ± 0.87 µM.

Which Kd [6] does the source give for B2 here?
Its Kd is 71.9 ± 13.3 µM.

B3: Rpn13_260-402: Rpn13 construct devoid of the C-terminal pentapeptide (residues 260–402) (protein)
chain: QPIQLSDLQSILATMNVPAGPAGGQQVDLASVLTPEIMAPILANADVQERLLPYLPSGESLPQTADEIQNTLTSPQFQQALGMFSAALASGQLGPLMCQFGLPAEAVEAANKGDVEAFAKAMQNNAKPEQKEGDTKDKKDEEE
modifications: left off: thioredoxin A (TxA), N-terminal, cleaved | His6, N-terminal, cleaved
Which results are given for B3?
ITC binding, result in words [7]: abrogation of binding with SGTA_TPR; ITC binding, result in words ([7]; listed as Rpn13260-402): does not interact; SEC complex formation with SGTA_TPR [8]: no evidence of an interaction; CSP of SGTA_TPR backbone amide signals, result in words [9]: no perturbation of SGTA_TPR backbone amide signals
